Laboratory results reported in article PMC8042443.

Target: GST fusion protein of the α1-syntrophin PDZ domain (UniProt Q61234)
Assay: pull-down; GST fusion proteins immobilised on beads, incubated 1 to 2 h at 4 °C with lysates of MEFs expressing HA-tagged DGKζ constructs; washed at least four times with ice-cold lysis buffer; bound DGKζ detected by anti-HA immunoblot; in some panels cells were treated with vehicle, 100 nM PMA, or 1 μM Gö6976 before PMA

Sequence of GST fusion protein of the α1-syntrophin PDZ domain (Q61234 81-164): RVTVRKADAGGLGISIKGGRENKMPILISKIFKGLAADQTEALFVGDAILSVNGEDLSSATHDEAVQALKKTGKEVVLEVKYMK
Sequence of HA-tagged DGKζ^M1 (all four serine residues in the MARCKS domain changed to aspartate) (Q13574 whole entry, the tested form may be a part): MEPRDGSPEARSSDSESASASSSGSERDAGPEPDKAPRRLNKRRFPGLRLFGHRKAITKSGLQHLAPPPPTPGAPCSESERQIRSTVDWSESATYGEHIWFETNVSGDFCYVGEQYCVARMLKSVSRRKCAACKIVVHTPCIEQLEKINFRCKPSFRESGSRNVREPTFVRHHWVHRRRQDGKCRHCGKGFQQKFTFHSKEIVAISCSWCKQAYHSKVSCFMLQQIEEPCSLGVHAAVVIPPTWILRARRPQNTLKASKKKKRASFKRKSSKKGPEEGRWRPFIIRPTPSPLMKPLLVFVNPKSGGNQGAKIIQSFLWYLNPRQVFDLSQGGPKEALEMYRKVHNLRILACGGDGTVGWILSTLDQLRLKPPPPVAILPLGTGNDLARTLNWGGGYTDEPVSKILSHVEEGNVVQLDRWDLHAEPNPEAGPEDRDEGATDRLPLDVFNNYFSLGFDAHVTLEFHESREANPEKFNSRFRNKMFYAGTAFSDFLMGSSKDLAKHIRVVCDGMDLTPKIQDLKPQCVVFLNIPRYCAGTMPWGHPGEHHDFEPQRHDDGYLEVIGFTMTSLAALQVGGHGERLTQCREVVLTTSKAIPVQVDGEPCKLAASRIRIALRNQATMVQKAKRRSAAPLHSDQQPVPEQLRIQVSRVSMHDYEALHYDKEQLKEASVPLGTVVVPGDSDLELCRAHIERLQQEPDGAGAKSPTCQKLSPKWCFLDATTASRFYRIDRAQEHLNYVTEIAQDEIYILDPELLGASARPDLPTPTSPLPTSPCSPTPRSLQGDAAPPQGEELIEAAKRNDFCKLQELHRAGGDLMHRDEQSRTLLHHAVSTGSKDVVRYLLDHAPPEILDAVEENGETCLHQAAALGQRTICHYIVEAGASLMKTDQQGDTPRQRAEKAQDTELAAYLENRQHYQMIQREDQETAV

HA-tagged DGKζ^M1 (all four serine residues in the MARCKS domain changed to aspartate) (from UniProt Q13574 1-928) (enzyme)
fold binding against DGKζ^WT: 2.5 fold
